Measured values reported in patent EP4653467A1 (Wuhan Zhaozhi Biotechnology Co., Ltd., dated 2025).

Molecular target: T1, CD22 on RAJI cells (UniProt P20273 20-847, limits assumed)
T1 sequence (looked up): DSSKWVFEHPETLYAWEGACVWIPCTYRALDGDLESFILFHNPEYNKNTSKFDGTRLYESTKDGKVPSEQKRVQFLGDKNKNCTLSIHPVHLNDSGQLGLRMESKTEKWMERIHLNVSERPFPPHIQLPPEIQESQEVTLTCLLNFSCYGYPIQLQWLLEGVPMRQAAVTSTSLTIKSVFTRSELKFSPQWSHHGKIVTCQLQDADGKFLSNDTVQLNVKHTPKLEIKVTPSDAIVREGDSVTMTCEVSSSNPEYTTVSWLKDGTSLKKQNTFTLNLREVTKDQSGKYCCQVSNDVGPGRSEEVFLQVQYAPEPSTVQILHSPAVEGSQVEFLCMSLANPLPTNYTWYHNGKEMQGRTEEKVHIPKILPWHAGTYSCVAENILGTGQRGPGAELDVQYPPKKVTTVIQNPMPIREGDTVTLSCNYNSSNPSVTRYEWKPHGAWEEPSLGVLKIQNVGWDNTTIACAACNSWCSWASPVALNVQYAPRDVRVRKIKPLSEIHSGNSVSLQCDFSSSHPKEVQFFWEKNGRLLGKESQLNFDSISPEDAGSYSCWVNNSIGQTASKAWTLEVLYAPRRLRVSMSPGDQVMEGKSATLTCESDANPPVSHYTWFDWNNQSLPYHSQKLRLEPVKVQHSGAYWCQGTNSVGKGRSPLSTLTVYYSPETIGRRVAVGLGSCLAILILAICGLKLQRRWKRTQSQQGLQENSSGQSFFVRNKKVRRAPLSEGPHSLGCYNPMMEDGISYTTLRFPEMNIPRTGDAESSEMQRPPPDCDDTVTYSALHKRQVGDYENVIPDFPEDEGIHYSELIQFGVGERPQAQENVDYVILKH
Assay: cell-based or functional assay

B1: CAR22 (CAR molecule targeting CD22) (other)
chain: MALPVTALLLPLALLLHAAIPDTEVQLVESGGGLVKPGGSLKLSCAASGFAFSIYDMSWVRQTPEKRLEWVAYISSGGGTYYPDTVKGRFTISRDNAKNTLYLQMSSLKSEDTAMYYCARHSGYGTHWGVLFAYWGQGTLVTVSAGGGGSGGGGSGGGGSDIQMTQTTSSLSASLGDRVTISCRASQDISNYLNWYQQKPDGTVKLLIYYTSILHSGVPSRFSGSGSGTDYSLTISNLEQEDFATYFCQQGNTLPWTFGGGTKLEIKATTTPAPRPPTPAPTIASQPLSLRPEACRPAAGGAVHTRGLDFACDFWVLVVVGGVLACYSLLVTVAFIIFWVRSKRSRLLHSDYMNMTPRRPGPTRKHYQPYAPPRDFAAYRSKRGRKKLLYIFKQPFMRPVQTTQEEDGCSCRFPEEEEGGCELRVKFSRSADAPAYQQGQNQLYNELNLGRREEYDVLDKRRGRDPEMGGKPRRKNPQEGLYNELQKDKMAEAYSEIGMKGERRRGKGHDGLYQGLSTATKDTYDALHMQALPPR
target cell lysis (calcein release), CAR-T cells on RAJI positive target cells, effector-to-target ratio 2:1: 11.5%
target cell lysis (calcein release), CAR-T cells on RAJI positive target cells, effector-to-target ratio 10:1: 46.9%
target cell lysis (calcein release), CAR-T cells on RAJI positive target cells, effector-to-target ratio 50:1: 94.4%
